Laboratory results from the nanobody polyreactivity screen of Harvey et al. (2022).

Experiment: yeast display, Sf9 membrane polyspecificity reagent, FACS + sequencing; frameworks hold sequencing errors
Outline: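 Nanobodies came from a synthetic yeast display library in Saccharomyces cerevisiae BJ5465, induced with galactose for 36–48 hours and stained for 1 hour at 4 °C with 10% biotinylated, detergent-solubilized Sf9 membrane reagent. Cells were enriched on streptavidin microbeads and then FACS-sorted, with low and high (top ~1%) gates set on anti-HA fluorescence for expression and streptavidin fluorescence for reagent binding. Each polyreactivity label reflects the gate a clone came from. Genes were amplified by colony PCR, sequenced by MiSeq 2 × 250 and filtered by CDR length.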

| Sequence | polyreactivity (PSR sort gate) |
| --- | --- |
| QVQLVESGGGLVQAGGSLRLSCAASGITFSPYTMGCYRQAPGKERELVAAITDGAITYYADSVKGRFTISRDNAKNTVYLQMNSLKPEDTAVYYCAAAAWGTDPYSTDYATYDYWGQGTQVTVSS | low polyreactivity |
| QVQLVESGGGLVQAGGSLRLSCAASGITFSRKVMGWFRQAPGKERELVAAISRSGGRTYYADSVKGRFTISRDTAKNTVYLQMNSLKPEDTAVYYCNRDIGGTSVLDDYWGQGTQVTVSS | low polyreactivity |
| QVQLVESGGGLVQAGGSLRLSCAASGITFSRNAMGWYRQAPGKERELVATITSGGSTNYADSVKGRFTISRDNAKNTVYLQMNSLKPEDTAGYYCNAVWNTFISGRSYDYWGQGTQVTVSS | low polyreactivity |
| QVQLVESGGGLVQAGGSLRLSCAASGITFSRNAMGWYRQAPGKERELVATITSGGSTNYADSVKGRFTISRDNAKNTVYLQMNSLKPEDTAVYYCNAVWNTLISGRSYDYWGQGTQVTVSS | low polyreactivity |
| QVQLVESGGGLVQAGGSLRLSCAASGITFSRNAMGWYRQAPGKERELVAVISTRGGRTYYADSVKGRFTISRDNAKNTVYLQMISLKPEDTAVYYCAASPDPYWRRMDYWGQGTQVTVSS | high polyreactivity |
| QVQLVESGGGLVQAGGSLRLSCAASGITFSRNVMGWYRQAPGKERELVAAISRSGGRTYYADSVKGRFTISRDNAKNTVYLQMNSLKPEDTAVYDCNRDIGGTSVLDDYWGQGTQVTVSS | low polyreactivity |
| QVQLVESGGGLVQAGGSLRLSCAASGITFSRNVMGWYRQAPGKERELVAAISRSGGTTTYADSVKGRFTISRDNAKNTVYLQMNSLKPEDTAVYYCNVYDYPTYDYWGQGTQVSVSS | low polyreactivity |
| QVQLVESGGGLVQAGGSLRLSCAASGITFSRYAMGWYRQAPGKERELVAAITVSGGTTYYADSVKGRFTISRDNAKNTVYLQMNSLKPEDTAVYYCAAVRRKTAGGLEDYWGQGTQVTVSS | high polyreactivity |
| QVQLVESGGGLVQAGGSLRLSCAASGITFSRYAMGWYRQAPVKERELVAAITWDGGRTYYADSVKGRFTISRANAKNTVYLQMNSRKPEDTADYYCSAGSAWWYYWGQGTQVTVSS | high polyreactivity |
| QVQLVESGGGLVQAGGSLRLSCAASGITFSTYAMGWYIQAPGKERELVAAITKSGGSTYYADSVKGRFTISRDNAKNTVYLQMNRLKPEDTAVYYCAARFPHRHYLLYTYDYWGQGTQVTVSS | low polyreactivity |
| QVQLVESGGGLVQAGGSLRLSCAASGITFSVYAMGWYRQAPGKERELVAAINYDSGSTYYADSVKGRFTISRDNAKNTVYLQMNSLKPEDTAVYYCATDGVNPFYAFDYWGQGTQVTVSS | low polyreactivity |
| QVQLVESGGGLVQAGGSLRLSCAASGITFSVYTMGWYIQAPGKERELVAAIDSDGITNYADSVKGRFTISRDNEKNNVYLQMNSLKPEDTAVSYCAKQTGRADGVSGFDYWGQGTQVTVSS | low polyreactivity |
| QVQLVESGGGLVQAGGSLRLSCAASGITFSYNAMGWYRQAAGKERELVAAITWSGDSTYYADSVKGRFTISRDNAKNTVYLQMNSLKPEDTAVYYCNAVPSQHDEFDYWGQGTQVTVSS | low polyreactivity |
| QVQLVESGGGLVQAGGSLRLSCAASGITFSYNAMGWYRQAPGKERQLVAAITWSGDSTYYADSVKGRFTISRDNAKNTVYLQMNSLKREDTAVYYCNARYLRLRYPYTDEYNYWGQGTQVTVSS | low polyreactivity |
| QVQLVESGGGLVQAGGSLRLSCAASGITFSYNVMGWYRQAPGKERELVAAISDGGSTYYADSVKGRFTISRDNAKNTVYLLMNSLKPEDTAVYDCAKGYPYTYSQQVIYDYYYWGQGTQVTVSS | low polyreactivity |
| QVQLVESGGGLVQAGGSLRLSCAASGITFSYNVMGWYRQAPGKERELVAAISDGGSTYYADSVKGRFTISRDNAKNTVYLQMNSLKPEDTAVYYCAADSPVDYLYALYLYVRDDYWGQGTQVTVSS | low polyreactivity |
| QVQLVESGGGLVQAGGSLRLSCAASGITFTAYAMGWYRHAPGKERELVATINSTGITNYADSVKGRFTISRDNAKNTVYLQMNSLKPEDTAVYYCAADLLDNSSYDGMDYWGQGTQVTVSS | low polyreactivity |
| QVQLVESGGGLVQAGGSLRLSCAASGITFTAYAMGWYRQAPGKERELVATINSTGITNYADSVKGRFTISRDNAKNTFYLQMNCLKAEDTAVSYCGADVLDISSYDGMDYWGKGTQVTVSS | low polyreactivity |
| QVQLVESGGGLVQAGGSLRLSCAASGITFTAYDMGWYRQAPWKEREFVAAISTIGGSTNYADSVKGRFTISRDNAKNTVYLQMNSLKPEDTAVYYCFAWVYQFGYWGQGTQVTVSS | low polyreactivity |
| QVQLVESGGGLVQAGGSLRLSCAASGITFTEYAMGWYRQAPGKERELVAAITGSGTSTYYADSVKGRFTISRDNAKNTVYLQMNSLKPEDTAVYYCAARTRGTAYNYWGQGTQVTVSS | high polyreactivity |
| QVQLVESGGGLVQAGGSLRLSCAASGITFTEYAMGWYRQAPGKERELVATISYGGGITYYADSVKGRFTISRDNAKNTVYLQMNSLKPEDTAVYYCAADGLSQVQRGMDYWGQGTQVNVSS | low polyreactivity |
| QVQLVESGGGLVQAGGSLRLSCAASGITFTGYDMGWYRQAPGIERELVADISNGSSTDYADSVKGRFTISRDNAKKTVYLQMNSLNPEDTAVYYCAVDIDNWSEYDYWGQGTQVTVSS | low polyreactivity |

| Sequence | polyreactivity (PSR sort gate) |
| --- | --- |
| QVQLVESGGGLVQAGGSLRLSCAASGITFTGYDMGWYRQAPGIERELVADISNGSSTDYADSVKGRFTISRDNAKNTVYFQMISLKPEDTAVYYCAVDIDNWSEYDYWGHGTQVTVSS | low polyreactivity |
| QVQLVESGGGLVQAGGSLRLSCAASGITFTGYSMGWYRQAPGKERELVAVISEKGGSTYADSVKGRFTISRDNAKNTVYLQMNSLKPEDTAVYYCAARLWWPYSTAWAKMDYWGQGTQVTVSS | low polyreactivity |
| QVQLVESGGGLVQAGGSLRLSCAASGITFTINAMGWYRQAPGKERELVAVIDVSGGSTDYADSVKGRFTISRDNAKNTVYLQMNSLKPEDTAVYYCAADEYDVYYYAYREYYWGQGTQVTVSS | low polyreactivity |
| QVQLVESGGGLVQAGGSLRLSCAASGITFTLYAMGWYRQAPGKERELVASISWSGGSTYYADSVKGRFTISRDIAKNTVYLQMNSLKPEDTAVYYCNAVYARKYYYSHGYDYWGQGTQVTVSS | high polyreactivity |
| QVQLVESGGGLVQAGGSLRLSCAASGITFTLYAMGWYRQAPGKERELVASISWSGGSTYYADSVKGRFTISRDNAKNTVYLQMNSLKPEDTAVYYCNAVYARKYYYSHGYDYWGQGTQVTVSS | high polyreactivity |
| QVQLVESGGGLVQAGGSLRLSCAASGITFTPYAMGWYRQAPGKERELVAAISWRGGSTYYADSVKGRFTISRDNAKNTVYLQMNSLKPEDTAVYYCAKDGRGYGRYSRYYTGDYWGQGTQVTVST | low polyreactivity |
| QVQLVESGGGLVQAGGSLRLSCAASGITFTRNAMGWYRQAPGKERELVAAISRRSGSTYYADSVKGRFTISRDNAKNTVYLQMNSLKPEDTAVYYCAATYSVHFVRYGYWGQGTQVTVSS | high polyreactivity |
| QVQLVESGGGLVQAGGSLRLSCAASGITFTRYTKGWYRQAPGKERELVAAIRGSGGSTYYADSVKGRFTISRDNAKNTVYLEMNSLKAEDTAVYFCAADKYLYGRLTRNFHYYYWGLGTQVTVSS | low polyreactivity |
| QVQLVESGGGLVQAGGSLRLSCAASGITFTSYAMGWYRQAPGKERELVAAISTRVGRTYYADSVKGRFTISRDNAKNTVYLQMNSLKPEDTAVYYCAADRISQGYSTYNYWGQGTQVTVSS | high polyreactivity |
| QVQLVESGGGLVQAGGSLRLSCAASGITFTSYVMGWYRQAPGKERELVAAIRWSGGRTYYADSVKGRFTISRDNAKNTDYLQMNTLKPAATAVYYCNRVTRSHVDYWGQGTQVTVSS | high polyreactivity |
| QVQLVESGGGLVQAGGSLRLSCAASGITFTVNAMGWYRQAPGKERELVAAISNDGSTYYADSVKGRFTISRDNAKNTVYLQMNSLKPEDTAVYYCAADTWDDFGPYGYDYWGQGTQVTVSS | low polyreactivity |
| QVQLVESGGGLVQAGGSLRLSCAASGITFTYYAMGWYRPAPGKERELVAAITDRGGRTYYADSVKWRFTISRDNAKKTVYLQMNRLNPDDTAVYFCNTVPTSNSRTSVYFPYYYWGQGTQVTVSS | high polyreactivity |
| QVQLVESGGGLVQAGGSLRLSCAASGITFVAYAMGWYRQAPGKERELVAAISGGGGSTYYADSVKGRFTISRDNAKNTVYLQMNSLKPEDTAVYYCAGVYTYPLGYYHYTYDYWGQGTQVTVSS | low polyreactivity |
| QVQLVESGGGLVQAGGSLRLSCAASGITFVDYDMGWYRQAPGKERELVAAISWSGGSTYYADSVKGRFTISRDNAKNTVYLQMNSLKPEDTAVYYFAAEVIWWVREYYYWGQGTQVTVSS | low polyreactivity |
| QVQLVESGGGLVQAGGSLRLSCAASGITFVGNDMGWYRQAPGKERELVATISSSGTRTYYADSVKGRFTISRDNAKNTVYLQMNSLKQEDTAVYYCAARWRSYITYWFDYWGQGTQVTVSS | low polyreactivity |
| QVQLVESGGGLVQAGGSLRLSCAASGITFVHYAMGWYIQAPGKERELVAAISEDGGSTYYADSVKGRFTISRDNAKNTVYLQMNSLKPEDTAVYYCNTYSGLWPYWRLYDYWGQGTQVTVSS | high polyreactivity |
| QVQLVESGGGLVQAGGSLRLSCAASGITFVLNVMGWNRQAPGKERELVAAISASGGRTYYADSVKGRFTISRDNAKHTVYLQMNSLKPEDTAVYYCNAVLPRYTFRSGVFEYDWGQGTQVTVSS | high polyreactivity |
| QVQLVESGGGLVQAGGSLRLSCAASGITFVNYAMGWYRQAPGKERELVAAISGDGGNTYYADSVKGRFTISRDNAKNTVYLQMNSLKPEDTAVYYCAATPYLYRLYGYWYRPYYYWGQGTQVTVSS | high polyreactivity |
| QVQLVESGGGLVQAGGSLRLSCAASGITFVQYAMGWYRQAPGKERELVAAIRRGGSTSYADSVKGRFTISRDNAKNTVYLQMNSLKPEDTAVYYCARRYVWPITPLDVEYWGQGTQVTVSS | low polyreactivity |
| QVQLVESGGGLVQAGGSLRLSCAASGITFVRYAMAWYRQAPGKEREFVAAINSIVGRTYYADSVKGRFTISRDNAKNTVYLQMNSLKPEDTAVYYCAADSNVRFGMDYWGQGTQVTVSS | low polyreactivity |
| QVQLVESGGGLVQAGGSLRLSCAASGITFVRYAMGWYRQAPGKEREFVARISRSGASTYYADSVKGRFTISRDNAKNTVYLQMNSLKPEDTAVYYCNKVYISREDYWGQGTQVTVSS | high polyreactivity |
